B1: LINE1-mini (parent)
chain: GGCAGAGCUCAACACAGCGUGGCAAAGUGGCUGUGGCUAGACUGCC

Variants of: B1
Test: self-cleavage, relative activity (ratio to wild type); higher = more cleavage; in vitro, sequencing; the parent is a self-cleaving ribozyme
Variant U9G C13U has a self-cleavage of 0.11.
Variant G5C G40C has a self-cleavage of 0.1.
U9A G40C showed a self-cleavage of 0.08.
For A6G A39G, the self-cleavage was 0.03.
G30C showed a self-cleavage of 1.63.
Work on C23G C46A yielded a self-cleavage of 1.07.
In the case of G33C G35C, the self-cleavage is reported as 0.04.
Variant G33C G35A has a self-cleavage of 0.04.
Variant U9C G33C has a self-cleavage of 0.03.
For C13G C46U, the self-cleavage was 0.46.
For U28C A39U, the self-cleavage was 1.
With C13A G19A the self-cleavage was 0.15.
With A12G G30U the self-cleavage was 0.04.
Variant A26U G35A has a self-cleavage of 0.24.
With G7U C8A the self-cleavage was 0.3.
A26G C45U showed a self-cleavage of 0.77.
G36C C37G gave a self-cleavage of 0.07.
G1A G17U gave a self-cleavage of 0.13.
Variant G7U U43C has a self-cleavage of 0.18.
Work on A14G C31G yielded a self-cleavage of 0.04.
G5C U38C showed a self-cleavage of 0.05.
A11G A24U gave a self-cleavage of 0.02.
G1A A14C showed a self-cleavage of 0.1.
G21C A24G showed a self-cleavage of 0.44.
Work on C13G A39U yielded a self-cleavage of 0.05.
C23G A39U showed a self-cleavage of 0.69.
In the case of U9C U34G, the self-cleavage is reported as 0.03.
Variant G21A G30C has a self-cleavage of 0.61.
Work on G33A G36C yielded a self-cleavage of 0.05.
A25U A39G gave a self-cleavage of 0.07.
In the case of C3U A16U, the self-cleavage is reported as 0.09.
C8A G19A showed a self-cleavage of 0.38.
With C10U G35U the self-cleavage was 0.05.
For G1U C8G, the self-cleavage was 0.06.
C3G A39C showed a self-cleavage of 0.14.
Work on A24C C42U yielded a self-cleavage of 0.13.
Work on C3G A16C yielded a self-cleavage of 0.12.
G29C G40U gave a self-cleavage of 0.07.
Work on G22U G29A yielded a self-cleavage of 1.67.
Work on G21C G29C yielded a self-cleavage of 0.55.
Variant C18U A41G has a self-cleavage of 0.26.
With A11G C42A the self-cleavage was 0.02.
A16G A41U showed a self-cleavage of 0.16.
For G5U G36C, the self-cleavage was 0.04.
Work on A14U G33A yielded a self-cleavage of 0.08.
In the case of C10U A14U, the self-cleavage is reported as 0.14.
Work on G2A C3A yielded a self-cleavage of 1.93.
With G2C A39U the self-cleavage was 0.1.
Work on G36C A39C yielded a self-cleavage of 0.05.
Variant C18A G21A has a self-cleavage of 1.86.
A11U C45U showed a self-cleavage of 0.23.
G29A C37A showed a self-cleavage of 0.1.
With G1U U9G the self-cleavage was 0.03.
With G2U C15U the self-cleavage was 0.05.
G2A A24C showed a self-cleavage of 1.16.
Variant C13A G22U has a self-cleavage of 0.11.
Work on G2U G36C yielded a self-cleavage of 0.05.
For C10A G17C, the self-cleavage was 0.1.
A12G C13A showed a self-cleavage of 0.07.
A16G G29C showed a self-cleavage of 0.4.
With U20C C46U the self-cleavage was 0.42.
G21C U38G gave a self-cleavage of 0.02.
Work on G29C G30C yielded a self-cleavage of 0.23.
For G30U U32A, the self-cleavage was 0.13.
For G22A C42A, the self-cleavage was 0.35.
With C13A G27A the self-cleavage was 0.18.
Work on C18U A24G yielded a self-cleavage of 1.01.
C18A C37G gave a self-cleavage of 0.07.
A4C G33C showed a self-cleavage of 0.04.
In the case of G1C G7U, the self-cleavage is reported as 0.03.
For G1C C23A, the self-cleavage was 0.16.
Variant G5C G21U has a self-cleavage of 0.09.
With U28A G40C the self-cleavage was 0.09.
For A26G G44A, the self-cleavage was 0.31.
Work on G21A G40A yielded a self-cleavage of 0.29.
U43G C45U showed a self-cleavage of 0.19.
With A11C C46U the self-cleavage was 0.11.
Variant G7A A26C has a self-cleavage of 0.18.
For G19U G22C, the self-cleavage was 0.5.
For C10U C23A, the self-cleavage was 0.43.
U28C U34A showed a self-cleavage of 0.22.
In the case of G19C U28C, the self-cleavage is reported as 0.6.
For U32C C46G, the self-cleavage was 0.1.
For G1C A16U, the self-cleavage was 0.02.
Work on G5C A26U yielded a self-cleavage of 0.06.
In the case of G19A G40C, the self-cleavage is reported as 0.07.
C3A C15A showed a self-cleavage of 0.24.
In the case of C3G A11G, the self-cleavage is reported as 0.09.
In the case of U28C C45U, the self-cleavage is reported as 1.88.
G17A C37U showed a self-cleavage of 0.05.
For G27C G36C, the self-cleavage was 0.09.
G30C G36U gave a self-cleavage of 0.11.
U20C U43C gave a self-cleavage of 0.09.
Work on A16U U20A yielded a self-cleavage of 0.06.
A11G A26G gave a self-cleavage of 0.04.
U28A G33U gave a self-cleavage of 0.16.
In the case of G27C C37U, the self-cleavage is reported as 0.04.
For A6C G21U, the self-cleavage was 0.44.
For G17U C23G, the self-cleavage was 0.1.
Variant C8G U43G has a self-cleavage of 0.88.
C3A C31A gave a self-cleavage of 0.16.
In the case of C3A C31G, the self-cleavage is reported as 0.13.
In the case of A24C G30U, the self-cleavage is reported as 0.79.
G35A U43C showed a self-cleavage of 0.07.
For A12U G30U, the self-cleavage was 0.58.
Variant U28A G29U has a self-cleavage of 0.41.
Variant A25U G35U has a self-cleavage of 0.16.
Variant A25U G35A has a self-cleavage of 0.12.
For A26G G29U, the self-cleavage was 1.23.
Work on C3U C15U yielded a self-cleavage of 0.32.
With A25U C42U the self-cleavage was 0.4.
For G1U A14C, the self-cleavage was 0.03.
With C13G A26G the self-cleavage was 0.08.
G30A C45G showed a self-cleavage of 0.4.
For A6C G19A, the self-cleavage was 1.02.
Work on C3U C42U yielded a self-cleavage of 0.14.
In the case of U9G G29U, the self-cleavage is reported as 0.07.
C10A U34C showed a self-cleavage of 0.04.
Variant C8U C37A has a self-cleavage of 0.14.
A41G C46G gave a self-cleavage of 0.08.
In the case of G17U C46U, the self-cleavage is reported as 0.16.
Work on C37A C46A yielded a self-cleavage of 0.05.
In the case of C13A U34C, the self-cleavage is reported as 0.06.
With C3U C45U the self-cleavage was 0.32.
G1C G33C gave a self-cleavage of 0.14.
U9G G40U showed a self-cleavage of 0.08.
In the case of U9G A26G, the self-cleavage is reported as 0.04.
G2A U32G gave a self-cleavage of 0.2.
Work on G7A A24U yielded a self-cleavage of 0.16.
For A4C A24G, the self-cleavage was 0.14.
Variant G30U C42U has a self-cleavage of 0.32.
G33A U34A showed a self-cleavage of 0.09.
In the case of A26C U32G, the self-cleavage is reported as 0.13.
Variant A6G C31U has a self-cleavage of 0.03.
G2U U43C showed a self-cleavage of 0.06.
Variant G17A G29U has a self-cleavage of 0.07.
A24C U32C showed a self-cleavage of 0.05.
For G35U G36A, the self-cleavage was 0.16.
In the case of A6G C18G, the self-cleavage is reported as 0.11.
For C8U C42U, the self-cleavage was 0.17.
Work on C13U G36U yielded a self-cleavage of 0.15.
G1C A6G showed a self-cleavage of 0.02.
Variant G1A U28A has a self-cleavage of 0.26.
In the case of G7C A16C, the self-cleavage is reported as 0.11.
With G7C A16G the self-cleavage was 0.06.
In the case of G21U A41U, the self-cleavage is reported as 0.9.
For C31U C45U, the self-cleavage was 0.18.
With C8A A26C the self-cleavage was 0.26.
G19U G29A showed a self-cleavage of 0.93.
In the case of A16U G29U, the self-cleavage is reported as 0.39.
C15U G22U gave a self-cleavage of 0.78.
In the case of G1U C46A, the self-cleavage is reported as 0.53.
Work on A24C A39G yielded a self-cleavage of 0.07.
With A16C C42G the self-cleavage was 0.09.
A14U U34C showed a self-cleavage of 0.17.
For A11U C31U, the self-cleavage was 0.1.
For C8U C31G, the self-cleavage was 0.17.
For G7C A25G, the self-cleavage was 0.06.
With A14C A39G the self-cleavage was 0.04.
For G35C A41G, the self-cleavage was 0.08.
A12C U28A showed a self-cleavage of 0.02.
With C13A G33C the self-cleavage was 0.06.
A6U A41G showed a self-cleavage of 2.27.
With C15A G40C the self-cleavage was 0.07.
C3U C10U showed a self-cleavage of 0.15.
With C15A C37G the self-cleavage was 0.04.
G33A G35C showed a self-cleavage of 0.05.

From the RNAGym collection of RNA variant scans (doi:10.7554/elife.90254)
